From patent US11807877

What was measured:
[1] = target: Staphylococcus aureus Cas9, wild-type (Staphylococcus aureus) (UniProt J7RUA5); assay: cell-based or functional assay
[2] = target: Streptococcus pyogenes Cas9, wild-type (Streptococcus pyogenes) (UniProt Q99ZW2); assay: cell-based or functional assay
UniProt Q99ZW2, sequence (Q99ZW2 whole entry): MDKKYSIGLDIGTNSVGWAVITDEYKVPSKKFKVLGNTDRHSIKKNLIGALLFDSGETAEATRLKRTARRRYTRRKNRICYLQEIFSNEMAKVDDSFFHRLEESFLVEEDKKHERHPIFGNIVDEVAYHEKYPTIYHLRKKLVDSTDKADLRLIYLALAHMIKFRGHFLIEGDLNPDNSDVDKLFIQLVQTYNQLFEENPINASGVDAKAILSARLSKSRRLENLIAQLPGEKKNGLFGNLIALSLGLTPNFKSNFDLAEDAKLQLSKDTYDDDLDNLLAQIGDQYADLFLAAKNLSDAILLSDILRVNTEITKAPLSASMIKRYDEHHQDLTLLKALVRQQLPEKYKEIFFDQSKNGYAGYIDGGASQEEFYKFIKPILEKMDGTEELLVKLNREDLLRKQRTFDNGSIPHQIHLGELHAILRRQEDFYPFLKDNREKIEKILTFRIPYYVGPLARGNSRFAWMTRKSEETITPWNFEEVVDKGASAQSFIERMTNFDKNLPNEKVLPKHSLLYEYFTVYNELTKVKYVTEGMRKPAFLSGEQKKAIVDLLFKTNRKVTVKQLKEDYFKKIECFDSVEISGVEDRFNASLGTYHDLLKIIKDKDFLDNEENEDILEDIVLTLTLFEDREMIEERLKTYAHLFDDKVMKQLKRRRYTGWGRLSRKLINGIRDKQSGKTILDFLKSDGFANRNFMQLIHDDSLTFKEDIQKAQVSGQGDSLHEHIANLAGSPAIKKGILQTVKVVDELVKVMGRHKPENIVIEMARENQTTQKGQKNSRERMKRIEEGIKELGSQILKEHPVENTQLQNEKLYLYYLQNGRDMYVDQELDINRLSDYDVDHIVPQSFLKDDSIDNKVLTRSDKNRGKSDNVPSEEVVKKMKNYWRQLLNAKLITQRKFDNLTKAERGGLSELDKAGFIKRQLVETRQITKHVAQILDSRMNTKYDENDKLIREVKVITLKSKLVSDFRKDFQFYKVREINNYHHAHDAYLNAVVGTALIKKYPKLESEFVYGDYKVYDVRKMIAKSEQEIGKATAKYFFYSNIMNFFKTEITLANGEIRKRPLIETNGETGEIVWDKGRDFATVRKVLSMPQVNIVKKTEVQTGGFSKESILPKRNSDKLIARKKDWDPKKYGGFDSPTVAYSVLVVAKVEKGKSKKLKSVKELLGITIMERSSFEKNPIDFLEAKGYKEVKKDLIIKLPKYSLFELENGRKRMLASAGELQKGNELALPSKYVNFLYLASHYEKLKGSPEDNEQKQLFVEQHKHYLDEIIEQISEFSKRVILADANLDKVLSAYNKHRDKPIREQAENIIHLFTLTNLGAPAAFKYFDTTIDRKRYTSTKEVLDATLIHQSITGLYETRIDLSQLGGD

UniProt J7RUA5, sequence (J7RUA5 2-1053, tags left off): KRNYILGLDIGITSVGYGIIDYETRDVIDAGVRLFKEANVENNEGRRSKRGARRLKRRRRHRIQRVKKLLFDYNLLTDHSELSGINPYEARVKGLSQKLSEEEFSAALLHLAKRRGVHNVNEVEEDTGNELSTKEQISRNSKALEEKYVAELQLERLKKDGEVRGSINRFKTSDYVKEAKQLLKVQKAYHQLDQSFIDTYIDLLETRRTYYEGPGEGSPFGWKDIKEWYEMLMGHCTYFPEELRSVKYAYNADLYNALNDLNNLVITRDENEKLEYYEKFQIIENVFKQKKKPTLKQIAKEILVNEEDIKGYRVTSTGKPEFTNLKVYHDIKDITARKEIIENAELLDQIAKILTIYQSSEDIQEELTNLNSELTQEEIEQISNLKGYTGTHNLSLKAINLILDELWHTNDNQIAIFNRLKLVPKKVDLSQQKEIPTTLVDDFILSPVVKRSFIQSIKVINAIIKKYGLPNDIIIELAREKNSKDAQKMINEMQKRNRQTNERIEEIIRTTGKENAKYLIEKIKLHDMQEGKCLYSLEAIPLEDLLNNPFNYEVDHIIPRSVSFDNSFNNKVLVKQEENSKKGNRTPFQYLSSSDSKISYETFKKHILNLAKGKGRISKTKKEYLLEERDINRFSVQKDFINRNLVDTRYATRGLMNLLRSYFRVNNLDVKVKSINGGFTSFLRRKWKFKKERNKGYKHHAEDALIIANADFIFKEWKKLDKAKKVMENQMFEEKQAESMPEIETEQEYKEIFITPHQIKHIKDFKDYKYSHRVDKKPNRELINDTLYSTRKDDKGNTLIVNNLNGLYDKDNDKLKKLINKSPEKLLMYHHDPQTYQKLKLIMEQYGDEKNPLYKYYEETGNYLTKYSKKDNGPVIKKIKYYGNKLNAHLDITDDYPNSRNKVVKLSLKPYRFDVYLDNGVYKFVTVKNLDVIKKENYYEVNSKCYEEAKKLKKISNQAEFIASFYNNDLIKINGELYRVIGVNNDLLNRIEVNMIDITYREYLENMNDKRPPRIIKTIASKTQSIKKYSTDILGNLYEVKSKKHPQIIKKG

| Substance | inhibition of Cas9 cleavage activity in the quenched FRET fluorescence assay [1] [µM] | inhibition of Cas9 cleavage activity in the quenched FRET fluorescence assay [2] [µM] |
| --- | --- | --- |
| AcrIIA4 anti-CRISPR protein | > 10 | < 0.03 |
| AcrIIC1 anti-CRISPR protein | > 10 | > 10 |
